Publication doi:10.1101/2024.09.07.611787, “Molecular glues that inhibit deubiquitylase activity and inflammatory signalling” (bioRxiv, 2024)

Columns and labels:
[1] = molecular target: His-tagged BRISC labelled with RED-tris-NTA dye (human) (UniProt P46736); test: spectral shift (Dianthus); as a16, labelled His-BRISC first incubated with 100 uM FX-171-C (1% DMSO) for 15 min at RT
[2] = molecular target: His-tagged BRISC labelled with RED-tris-NTA dye (human) (UniProt P46736); test: spectral shift (Dianthus); as a16, labelled His-BRISC first incubated with 100 uM JMS-175-2 (1% DMSO) for 15 min at RT
[3] = molecular target: His-tagged BRISC labelled with RED-tris-NTA dye (human) (UniProt P46736); test: spectral shift (Dianthus); 12.5 nM RED-tris-NTA labelled His-BRISC, SHMT2(A285T) titrated 46 uM to 1.4 nM, no compound (1% DMSO); 25 mM HEPES pH 7.5, 150 mM NaCl, 1 mM DTT, 0.005% Tween-20, 25 °C; one-site total binding

SHMT2ΔN(A285T) (residues 18–504) (from UniProt P34897 18-504) (enzyme)
KD after incubation with FX-171-C [1]: 3600 nM
KD after incubation with JMS-175-2 [2]: 700 nM
Kd [3]: 400 nM
